Laboratory results as given in PMC4498918.

Columns and labels:
Experiment in all cases: EMSA
[1] = system: δ2D60A (Streptococcus pyogenes plasmid pSM19035); details: EMSA: 50 mM Tris-HCl pH 7.5, 50 mM NaCl, 10 mM MgCl2 (buffer B; Fig 7 legend says buffer C), with or without 1 mM ATP or ADP, 15 min at 37°C, 0.1 nM DNA; 4 or …
[2] = system: δ2 (ParA-like) (Streptococcus pyogenes plasmid pSM19035); details: 1 mM ATP, 10 mM Mg2+; KDapp, cooperative; EMSA: 50 mM Tris-HCl pH 7.5, 50 mM NaCl, 10 mM MgCl2 (buffer B; Fig 7 legend says buffer C), with or without 1 mM ATP or ADP, 15 min at 37°C, 0.1 nM DNA; 4 or …
[3] = system: δ2D211A (Streptococcus pyogenes plasmid pSM19035); details: EMSA: 50 mM Tris-HCl pH 7.5, 50 mM NaCl, 10 mM MgCl2 (buffer B; Fig 7 legend says buffer C), with or without 1 mM ATP or ADP, 15 min at 37°C, 0.1 nM DNA; 4 or …
[4] = system: δ2K242A (Streptococcus pyogenes plasmid pSM19035); details: EMSA: 50 mM Tris-HCl pH 7.5, 50 mM NaCl, 10 mM MgCl2 (buffer B; Fig 7 legend says buffer C), with or without 1 mM ATP or ADP, 15 min at 37°C, 0.1 nM DNA; 4 or …

**Q.** With 423-bp HindIII-KpnI parS2 DNA as the substance, how does the binding signal (fold higher affinity than wt) [1] read?
**A.** Its binding signal (fold higher affinity than wt) is 2.

**Q.** What about the Kd [2] of the same substance?
**A.** Its Kd is 140 nM.

**Q.** What about the binding signal (fold higher affinity than wt) [3] of the same substance?
**A.** The binding signal (fold higher affinity than wt) was greater than 6.

**Q.** What about the binding signal (fold lower binding than wt) [4] of the same substance?
**A.** Its binding signal (fold lower binding than wt) is 20.
